T1: DR4, endogenous, in human cancer cell lysates (human, UniProt O00220 24-468)
T1 construct: also called TRAIL receptor DR4
T1 sequence (looked up): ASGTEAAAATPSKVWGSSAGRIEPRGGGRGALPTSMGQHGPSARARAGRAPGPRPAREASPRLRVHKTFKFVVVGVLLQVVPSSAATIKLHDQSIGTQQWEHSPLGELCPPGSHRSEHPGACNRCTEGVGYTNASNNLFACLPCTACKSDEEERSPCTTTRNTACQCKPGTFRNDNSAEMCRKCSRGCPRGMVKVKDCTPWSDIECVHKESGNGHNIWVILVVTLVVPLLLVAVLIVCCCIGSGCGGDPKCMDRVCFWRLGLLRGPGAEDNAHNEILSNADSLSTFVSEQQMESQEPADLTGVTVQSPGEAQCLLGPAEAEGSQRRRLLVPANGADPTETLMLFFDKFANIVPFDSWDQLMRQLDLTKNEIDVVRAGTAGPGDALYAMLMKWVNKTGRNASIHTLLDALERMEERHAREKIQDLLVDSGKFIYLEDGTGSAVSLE

B1: SPARC (Secreted Protein, Acidic, Rich in Cysteines), His-tagged, stably expressed in MIP101 cells (MIP/SP) (other, human, UniProt P09486 18-303, looked up)
chain: APQQEALPDETEVVEETVAEVTEVSVGANPVQVEVGEFDDGAEETEEEVVAENPCQNHHCKHGKVCELDENNTPMCVCQDPTSCPAPIGEFEKVCSNDNKTFDSSCHFFATKCTLEGTKKGHKLHLDYIGPCKYIPPCLDSELTEFPLRMRDWLKNVLVTLYERDEDNNLLTEKQKLRVKKIHENEKRLEAGDHPVELLARDFEKNYNMYIFPVHWQFGQLDQHPIDGYLSHTELAPLRAPLIPMEHCTTRFFETCDLDNDKYIALDEWAGCFGIKQKDIDKDLVI
notes: Present in membrane fractions of MIP/SP cell lysates used for co-immunoprecipitation; also called osteonectin; His-tagged SPARC protein; not shown: His tag
B2: FADD, endogenous, in human cancer cell lysates (other, UniProt Q13158 1-208, looked up)
chain: MDPFLVLLHSVSSSLSSSELTELKFLCLGRVGKRKLERVQSGLDLFSMLLEQNDLEPGHTELLRELLASLRRHDLLRRVDDFEAGAAAGAAPGEEDLCAAFNVICDNVGKDWRRLARQLKVSDTKIDSIEDRYPRNLTERVRESLRIWKNTEKENATVAHLVGALRSCQMNLVADLVQEVQQARDLQNRSGAMSPMSWNSDASTSEAS
notes: also called Fas-associated death domain; p-FADD

Assay [1] deals with T1, DR4, endogenous, in human cancer cell …. The experiment in a line: co-immunoprecipitation from subcellular fractions. As for the experimental part: (§1) Cells were separated into nuclear, cytosolic, and membrane fractions using ProteoExtract Subcellular Proteome Extraction Kit (EMD Biosciences Inc.). […] Protein:Antibody mixture was then incubated with 30 μL of Protein A: Protein G (Sigma) (1:1) beads for 4 hours (4° C.).

Assay [2] addresses B1. The experiment in a line: co-immunoprecipitation from subcellular fractions. As for the experimental part: as §1

For the molecule B1, the binding result in assay [1] is “no binding”.
Take B2: in assay [2], the binding result is listed as “no binding”.
